Molecular target: bovine submaxillary mucin, a source of the TAG-72 antigen (bovine)
Assay: binding activity of the Chx-DTPA conjugate; assay not given

avidity against conjugated control parent huCC49: 5 to 6 fold
Substance: HuCC49 CH2 domain-deleted sc(Fv)2 tetravalent antibody conjugated with the chelator Chx-DTPA
